Data from paper doi:10.1101/2025.02.12.637823v1 (biorxiv, 2025).

B1: SlNADP-ME2 (Solanum lycopersicum) (protein)
chain: MESALKDLSTPTGGVEDVYGEDCATEDQCITPWTIAVSSGYNLLRDPRYNKGLAFTERERDAHYLRGLLPPVISSQELQEKKLMQSIRQYDVPLHKYVAMMELEERNERLFYKLLIDNVEELLPIVYTPTVGEACQKYGSLFKRPQGLYISLNEKGRILEVLKNWPEKSIQVIVVTDGERILGLGDLGCQGMGIPVGKLALYTALGGVRPSACLPITIDVGTNNEKLLNDEFYIGLRQRRATGQEYYDFLHEFMSAVKQNYGEKILVQFEDFANHNAFELLAKYRTSHLVFNDDIQGTASVVLAGLIASLKLLGGALCDHTFLFLGAGEAGTGIAELIALEISNKTNIPVEETRKKIWLVDSKGLIVSGRKETLQAFKKPWAHEHEPVNNLLDAVKAVKPTVLIGTSGTGRTFTKEVVEAMACMNKRPLIMALSNPTSQAECTAEEAYTWSEGRAVFASGSPFPSFEYDGKLNIPGQANNCYIFPGFGFGLVMSGTIRVHDDMLLAASEALAAQVTEEHYAKGMIYPPFADIRKISAHIAASVAAKAYELGVATRLPRPADLVKYAESCMYTPNYRSYR

Tests used:
[1] = test system: SlNADP-ME4a; assay: initial velocity, spectrophotometric; type: biochemical, Solanum lycopersicum; conditions: pyruvate reductive carboxylation (reverse reaction); assay details not given
[2] = substrate: CC(=O)C(=O)O; assay: initial velocity, spectrophotometric; type: biochemical, Solanum lycopersicum; conditions: pyruvate reductive carboxylation (reverse reaction); assay details not given

Molecule | Km [1] [mM] | Km [2] [mM] | kcat [2] [s⁻¹]
CC(=O)C(=O)O [pyr] | 15.5 ± 1 | – | –
B1 | – | 5.0 ± 1.1 | 26.5 ± 1.7
